Publication PMC10099132, “Sequence and Structural Motifs Controlling the Broad Substrate Specificity of the Mycobacterial Hormone-Sensitive Lipase LipN” (ACS Omega, 2023)

How the values were obtained:
[1] = tested on: CCCC(=O)Oc1ccc([N+](=O)[O-])cc1; test: purified protein, by the assay type; set-up: p-nitrophenyl ester hydrolysis, absorbance at 412 nm, Michaelis-Menten fit
Source text: (A) Classic p-nitrophenyl ester substrates were used as conformation for fluorogenic substrate measurements (Figure 1). (B) Catalytic efficiency comparison of MmLipN against p-nitrophenyl substrates. Catalytic efficiency values (kcat/Km) are given ± SD. (C, D) Kinetic activity of MmLipN against (C) short alkyl ester substrates: p-nitrophenyl acetate (C2) and p-nitrophenyl butyrate (C4) and (D) longer alkyl ester substrates: p-nitrophenyl valerate ([…]), p-nitrophenyl octonoate (C8), and p-nitrophenyl myristate (C14). Data points were fitted to the Michaelis–Menten equation and are shown ± SD.

[2] = tested on: O=C1OC2(c3ccc(OCOC(=O)C4CCCC4)cc3Oc3cc(OCOC(=O)C4CCCC4)ccc32)c2ccccc21; test: purified protein, by the assay type; set-up: fluorogenic ester hydrolysis, fluorescein release, Michaelis-Menten fit of initial rates
Description: (§1) The enzyme kinetic activity of LipN was assayed via the hydrolysis of the fluorogenic substrates (Figure 1) in accordance with past kinetic analysis of mycobacterial serine hydrolases.[37],[38],[40],[66],[67] Kinetic assays were run in triplicate on black 96-well plates in a Synergy H1 Hybrid Reader (BioTek). Fluorogenic ester substrates (10 mM in DMSO) were diluted to a starting concentration of 100 μM in PBS containing acetylated BSA (Sigma; 0.1 mg/mL). Eight serial dilutions (1:1; 120 μL into 240 μL total volume) of each substrate were made using PBS–BSA. Fluorogenic substrate dilutions (95 μL) were then transferred to opaque 96-well microplate (Corning, Lowell, MA). Reactions were initiated by quickly adding enzyme (5 μL, 3.0 nM final concentration) to each assay well, mixed, and the fluorescence counts measured every 26–30 s for 4.5 min with a BioTek H1 Synergy multimode plate reader (Biotek Instruments; Winooski, VT) at ambient temperature. The instrument measured relative fluorescence through excitation at λ = 485 nm and emission at λ = 520 nm. The fluorescence change was converted to molar concentrations using a fluorescein standard curve (300–2.3 nM), whose fluorescence was measured simultaneously. The initial rates of the enzyme-catalyzed reactions were measured in triplicate and plotted versus fluorogenic substrate concentration. […] (A) Activation of fluorogenic ester substrates by MmLipN. Each of the substrates is composed of diacyloxymethyl ether fluorescein with varying R-groups. The differing R-groups have been organized into classes and colored based on chemical functionality. All of the substrates were synthesized as described previously.[38],[43] Substrates 6, 10–11, 14–15, 20, 23–30, and 33 were newly synthesized for this characterization of MmLipN. Detailed synthetic characterization is provided in the Supporting Information. (B) Global comparison of the catalytic specificity (kcat/KM) of MmLipN against each of the 33 substrates with ester classes labeled. Catalytic efficiency values (kcat/Km) are given ± SD based on at least three independent kinetic replicates. (C, D) Kinetic activity of MmLipN against high-activity ester substrates 1 (black circles), 7 (blue squares), and 20 (red diamonds) and low-activity ester substrates 12 (green circles), 16 (red squares), 27 (purple diamonds), and 31 (orange squares). Low- and high-activity substrates display classic Michaelis–Menten kinetics with MmLipN and activity above background hydrolysis rates. Traces colored based on ester classification from (A, B). All measurements were completed in at least triplicate and shown ± SD.

[3] = tested on: O=C(OCOc1ccc2c(c1)Oc1cc(OCOC(=O)c3ccco3)ccc1C21OC(=O)c2ccccc21)c1ccco1; test: purified protein, by the assay type; set-up: fluorogenic ester hydrolysis, fluorescein release, Michaelis-Menten fit of initial rates
Description: as §1

[4] = tested on: CC(=O)OCOc1ccc2c(c1)Oc1cc(OCOC(C)=O)ccc1C21OC(=O)c2ccccc21; test: purified protein, by the assay type; set-up: fluorogenic ester hydrolysis, fluorescein release, Michaelis-Menten fit of initial rates
Description: as §1

[5] = tested on: O=C1OC2(c3ccc(OCOC(=O)C4(C(F)(F)F)CC4)cc3Oc3cc(OCOC(=O)C4(C(F)(F)F)CC4)ccc32)c2ccccc21; test: purified protein, by the assay type; set-up: fluorogenic ester hydrolysis, fluorescein release, Michaelis-Menten fit of initial rates
Description: as §1

[6] = tested on: CS(=O)(=O)C1(C(=O)OCOc2ccc3c(c2)Oc2cc(OCOC(=O)C4(S(C)(=O)=O)CC4)ccc2C32OC(=O)c3ccccc32)CC1; test: purified protein, by the assay type; set-up: fluorogenic ester hydrolysis, fluorescein release, Michaelis-Menten fit of initial rates
Description: as §1

[7] = tested on: O=C1OC2(c3ccc(OCOC(=O)C4(O)CC4)cc3Oc3cc(OCOC(=O)C4(O)CC4)ccc32)c2ccccc21; test: purified protein, by the assay type; set-up: fluorogenic ester hydrolysis, fluorescein release, Michaelis-Menten fit of initial rates
Description: as §1

[8] = target: T1, MmLipN (LipN from M. marinum) (Mycobacterium marinum, UniProt B2HIK1); test: p-nitrophenol release at […] nm, Michaelis-Menten fit; type: biochemical; conditions: PBS, acetylated BSA 0.1 mg/mL, acetonitrile, 36 nM enzyme, 25 °C
T1 construct: E. coli LOBSTR (DE3); Ni-NTA
T1 sequence (B2HIK1 1-372): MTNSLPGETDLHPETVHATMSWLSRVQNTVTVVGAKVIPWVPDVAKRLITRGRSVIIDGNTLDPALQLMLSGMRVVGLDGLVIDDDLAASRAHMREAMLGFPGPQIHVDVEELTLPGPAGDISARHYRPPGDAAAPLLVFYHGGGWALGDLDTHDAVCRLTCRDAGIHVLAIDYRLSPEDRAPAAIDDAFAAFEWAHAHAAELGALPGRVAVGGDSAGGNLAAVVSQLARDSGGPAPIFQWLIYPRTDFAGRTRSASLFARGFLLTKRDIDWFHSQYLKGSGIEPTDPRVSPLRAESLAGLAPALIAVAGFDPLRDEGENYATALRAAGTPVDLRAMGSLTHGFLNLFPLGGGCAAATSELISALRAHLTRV

Molecule: MmLipN (LipN from M. marinum) (Mycobacterium marinum M)
- Km [1]: 20 ± 9 µM
- kcat [1]: 190 ± 10 s⁻¹
- kcat/Km [1]: 9.3e+06 ± 2.1e+06 M⁻¹ s⁻¹
- Km [2]: 33.9 ± 7.71 µM
- kcat [2]: 0.0012 ± 0.0001 s⁻¹
- kcat/Km [2]: 29 ± 4 M⁻¹ s⁻¹
- Km [3]: 0.84 ± 0.60 µM
- kcat [3]: 0.003 ± 0.0048 s⁻¹
- kcat/Km [3]: 3500 ± 3100 M⁻¹ s⁻¹
- Km [4]: 0.22 ± 0.12 µM
- kcat [4]: 0.1 ± 0.038 s⁻¹
- kcat/Km [4]: 460000 ± 150000 M⁻¹ s⁻¹
- Km [5]: 0.37 ± 0.13 µM
- kcat [5]: 3.7e-05 ± 3e-05 s⁻¹
- kcat/Km [5]: 98 ± 43 M⁻¹ s⁻¹
- Km [6]: 0.084 ± 0.15 µM
- kcat [6]: 1.4e-05 ± 5e-05 s⁻¹
- kcat/Km [6]: 170 ± 330 M⁻¹ s⁻¹
- Km [7]: 0.40 ± 0.10 µM
- kcat [7]: 0.0029 ± 0.0016 s⁻¹
- kcat/Km [7]: 7400 ± 2200 M⁻¹ s⁻¹

Molecule: CC(=O)Oc1ccc([N+](=O)[O-])cc1 [p-nitrophenyl acetate]
- KM [8]: The enzymatic activity of MmLipN was measured against p-nitrophenyl acetate

Molecule: CCCC(=O)Oc1ccc([N+](=O)[O-])cc1 [p-nitrophenyl butyrate]
- KM [8]: LipN showed highest activity against p-nitrophenyl butyrate

Molecule: CCCCC(=O)Oc1ccc([N+](=O)[O-])cc1 [p-nitrophenyl valerate]
- KM [8]: MmLipN was measured against p-nitrophenyl acetate, p-nitrophenyl butyrate, p-nitrophenyl valerate
